Consider 1 molecule from article PMC3097263.

The series addresses MqsA (UniProt Q46864 1-131). As to the kind of experiment: EMSA. For orientation: A gel shift assay detects complexes by their altered migration in electrophoresis.

MqsA, sequence (Q46864 whole entry): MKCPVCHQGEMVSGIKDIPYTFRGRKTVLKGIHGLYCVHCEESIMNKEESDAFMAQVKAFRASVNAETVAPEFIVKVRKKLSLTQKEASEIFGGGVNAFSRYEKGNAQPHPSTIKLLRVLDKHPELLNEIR

B1: PrpoS 25-mer (dsDNA)
DNA 1: TGGTCAGACCTTGCAGGTGGGTAAT
DNA 2: ATTACCCACCTGCAAGGTCTGACCA
For the molecule B1, the binding result is “binds”.
